From US20140363428A1 (Chugai, published 2014)
Numbering of substitutions follows the chain as printed.

B1: IgG1-F1082 (antibody)
heavy: QVQLQESGPGLVKPSETLSLTCAVSGHSISHDHAWSWVRQPPGEGLEWIGFISYSGITNYNPSLQGRVTISRDNSKNTLYLQMNSLRAEDTAVYYCARSLARTTAMDYWGEGTLVTVSSASTKGPSVFPLAPSSKSTSGGTAALGCLVKDYFPEPVTVSWNSGALTSGVHTFPAVLQSSGLYSLSSVVTVPSSSLGTQTYICNVNHKPSNTKVDKKVEPKSCDKTHTCPPCPAPELLGGPSVFLFPPKPKDTLYISRTPEVTCVVVDVSHEDPEVKFNWYVDGVEVHNAKTKPREEQYNSTYRVVSVLTVLHQDWLNGKEYKCKVSNKALPAPIEKTISKAKGQPREPQVYTLPPSRDELTKNQVSLTCLVKGFYPSDIAVEWESNGQPENNYKTTPPVLDSDGSFFLYSKLTVDKSRWQQGNVFSCSVMHEALHYHYTNKSLSLSP
light: not shown
notes: VH3-IgG1 with Fc substitutions (EU numbering) + L(WT)-CK
B2: IgG1-F1083 (antibody)
heavy: B1 heavy with N440Q, S442N
light: not shown
notes: as for B1
B3: IgG1-F1095 (antibody)
heavy: B1 heavy with S385N, G387S, N440Q
light: not shown
notes: as for B1
B4: IgG1-F1096 (antibody)
heavy: B1 heavy with Q388T, N440Q
light: not shown
notes: as for B1
B5: IgG1-F1097 (antibody)
heavy: B1 heavy with G387N, P389S, N440Q
light: not shown
notes: as for B1
B6: IgG1-F1098 (antibody)
heavy: B1 heavy with S241D, N440Q
light: not shown
notes: as for B1
B7: IgG1-F1099 (antibody)
heavy: B1 heavy with K328D, L330Y, N440Q
light: not shown
notes: as for B1
B8: IgG1-F1100 (antibody)
heavy: B1 heavy with S241D, K328D, L330Y, N440Q
light: not shown
notes: as for B1
B9: IgG1-F1101 (antibody)
heavy: B1 heavy with S241D, T309Q, Q313A, N440Q
light: not shown
notes: as for B1
B10: IgG1-F1102 (antibody)
heavy: B1 heavy with T309Q, Q313A, K328D, L330Y, N440Q
light: not shown
notes: as for B1
B11: IgG1-F1103 (antibody)
heavy: B1 heavy with S241D, T309Q, Q313A, K328D, L330Y, N440Q
light: not shown
notes: as for B1
B12: IgG1-F1104 (antibody)
heavy: B1 heavy with V424E, S426R, Y438V, N440Q
light: not shown
notes: as for B1
B13: IgG1-F1105 (antibody)
heavy: B1 heavy with V424S, S426R, Y438V, N440Q
light: not shown
notes: as for B1
B14: IgG1-F1106 (antibody)
heavy: B1 heavy with Y438V, N440R, S442E
light: not shown
notes: as for B1
B15: IgG1-F1107 (antibody)
heavy: B1 heavy with V424D, Y438V, N440Q
light: not shown
notes: as for B1
B16: IgG1-F1108 (antibody)
heavy: B1 heavy with V424K, Y438V, N440Q
light: not shown
notes: as for B1
B17: IgG1-F1109 (antibody)
heavy: B1 heavy with V424T, Y438V, N440Q
light: not shown
notes: as for B1
B18: IgG1-F1110 (antibody)
heavy: B1 heavy with V424Q, Y438V, N440Q
light: not shown
notes: as for B1
B19: IgG1-F1111 (antibody)
heavy: B1 heavy with S426K, Y438V, N440Q
light: not shown
notes: as for B1
B20: IgG1-F1112 (antibody)
heavy: B1 heavy with Y438V, N440K
light: not shown
notes: as for B1
B21: IgG1-F1113 (antibody)
heavy: B1 heavy with Y438V, N440Q, S442D
light: not shown
notes: as for B1
B22: IgG1-F1114 (antibody)
heavy: B1 heavy with Y438V, N440Q, S442Q
light: not shown
notes: as for B1
B23: IgG1-F1115 (antibody)
heavy: B1 heavy with S426N, Y438V, N440Q
light: not shown
notes: as for B1
B24: IgG1-F1116 (antibody)
heavy: B1 heavy with T309Q, Q313A, S426N, N440Q
light: not shown
notes: as for B1
B25: IgG1-F1117 (antibody)
heavy: B1 heavy with T252V, T309Q, Q313A, S426N, Y438V, N440Q
light: not shown
notes: as for B1
B26: IgG1-F1118 (antibody)
heavy: B1 heavy with T252V, T309Q, V310P, Q313A, S426N, Y438V, N440Q
light: not shown
notes: as for B1
B27: IgG1-F1119 (antibody)
heavy: B1 heavy with T252V, T309Q, V310P, Q313A, V424E, Y438V, N440Q
light: not shown
notes: as for B1
B28: IgG1-F1120 (antibody)
heavy: B1 heavy with T252V, T309Q, V310P, Q313A, S426R, Y438V, N440Q
light: not shown
notes: as for B1
B29: IgG1-F1121 (antibody)
heavy: B1 heavy with T252V, T309Q, V310P, Q313A, V424E, S426R, Y438V, N440Q
light: not shown
notes: as for B1
B30: IgG1-F1122 (antibody)
heavy: B1 heavy with T252V, T309Q, V310P, Q313A, Y438V, N440R
light: not shown
notes: as for B1
B31: IgG1-F1123 (antibody)
heavy: B1 heavy with T252V, T309Q, V310P, Q313A, Y438V, N440Q, S442E
light: not shown
notes: as for B1
B32: IgG1-F1124 (antibody)
heavy: B1 heavy with T252V, T309Q, V310P, Q313A, Y438V, N440R, S442E
light: not shown
notes: as for B1
B33: IgG1-F1126 (antibody)
heavy: B1 heavy with T309A, Y438V, N440Q
light: not shown
notes: as for B1
B34: IgG1-F1127 (antibody)
heavy: B1 heavy with Q313A, Y438V, N440Q
light: not shown
notes: as for B1
B35: IgG1-F1128 (antibody)
heavy: B1 heavy with Q313H, Y438V, N440Q
light: not shown
notes: as for B1
B36: IgG1-F1129 (antibody)
heavy: B1 heavy with T309Q, Q313H, Y438V, N440Q
light: not shown
notes: as for B1
B37: IgG1-F1130 (antibody)
heavy: B1 heavy with T309A, Q313A, Y438V, N440Q
light: not shown
notes: as for B1
B38: IgG1-F1131 (antibody)
heavy: B1 heavy with L237R, S241K, V424E, Y438V, N440Q
light: not shown
notes: as for B1
B39: IgG1-F1133 (antibody)
heavy: B1 heavy with L237R, S241K, S426R, Y438V, N440Q
light: not shown
notes: as for B1
B40: IgG1-F1134 (antibody)
heavy: B1 heavy with L237R, S241K, Y438V, N440R
light: not shown
notes: as for B1
B41: IgG1-F1135 (antibody)
heavy: B1 heavy with L237R, S241K, Y438V, N440Q, S442E
light: not shown
notes: as for B1
B42: IgG1-F1136 (antibody)
heavy: B1 heavy with L237R, S241K, V424E, S426R, Y438V, N440Q
light: not shown
notes: as for B1
B43: IgG1-F1137 (antibody)
heavy: B1 heavy with L237R, S241K, V424S, S426R, Y438V, N440Q
light: not shown
notes: as for B1
B44: IgG1-F1138 (antibody)
heavy: B1 heavy with L237R, S241K, Y438V, N440R, S442E
light: not shown
notes: as for B1
B45: IgG1-F1139 (antibody)
heavy: B1 heavy with L237R, S241K, S426N, Y438V, N440Q
light: not shown
notes: as for B1
B46: IgG1-F1140 (antibody)
heavy: B1 heavy with V424E, S426R, Y438V, N440R, S442E
light: not shown
notes: as for B1
B47: IgG1-F1141 (antibody)
heavy: B1 heavy with V424S, S426R, Y438V, N440R, S442E
light: not shown
notes: as for B1
B48: IgG1-F1142 (antibody)
heavy: B1 heavy with L237R, S241K, V424E, S426R, Y438V, N440R, S442E
light: not shown
notes: as for B1
B49: IgG1-F1143 (antibody)
heavy: B1 heavy with L237R, S241K, V424S, S426R, Y438V, N440R, S442E
light: not shown
notes: as for B1
B50: IgG1-F1144 (antibody)
heavy: B1 heavy with L237R, S241K, T252V, T309Q, V310P, Q313A, Y438V, N440R, S442E
light: not shown
notes: as for B1
B51: IgG1-F1145 (antibody)
heavy: B1 heavy with T252V, T309Q, Q313A, Y438V, N440R, S442E
light: not shown
notes: as for B1
B52: IgG1-F1146 (antibody)
heavy: B1 heavy with L237R, S241K, T252V, T309Q, Q313A, Y438V, N440R, S442E
light: not shown
notes: as for B1
B53: IgG1-F1147 (antibody)
heavy: B1 heavy with T309Q, Q313A, N440R, S442E
light: not shown
notes: as for B1
B54: IgG1-F1148 (antibody)
heavy: B1 heavy with L237R, S241K, T309Q, Q313A, N440R, S442E
light: not shown
notes: as for B1
B55: IgG1-F1151 (antibody)
heavy: B1 heavy with L237R, S241K, S426N, N440Q
light: not shown
notes: as for B1
B56: IgG1-F1152 (antibody)
heavy: B1 heavy with L237R, S241K, T309Q, Q313A, S426N, N440Q
light: not shown
notes: as for B1
B57: IgG1-F1153 (antibody)
heavy: B1 heavy with L237R, S241K, T252V, T309Q, Q313A, S426N, Y438V, N440Q
light: not shown
notes: as for B1
B58: IgG1-F1154 (antibody)
heavy: B1 heavy with L237R, S241K, T252V, T309Q, V310P, Q313A, S426N, Y438V, N440Q
light: not shown
notes: as for B1
B59: IgG1-F1157 (antibody)
heavy: B1 heavy with N440R, S442E
light: not shown
notes: as for B1

What follows are binders tested against T1, soluble human FcRn (heterodimer of FcRn alpha chain and beta2-microglobulin) (human, UniProt P55899 24-297; P61769 21-119) (assay: SPR Biacore T100, antibody captured via protein L, hFcRn analyte, pH 7.0, 25 C;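 note: KD derived from kinetic ka and kd fits of sensorgrams, CM4 sensor chip, sodium phosphate NaCl Tween20 running buffer, buffer-only injection used as reference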).
T1 construct: Expressed in HEK293H and purified on IgG Sepharose; also called hFcRn
T1 sequence (P55899 24-297 limits assumed, chain 1 of 2): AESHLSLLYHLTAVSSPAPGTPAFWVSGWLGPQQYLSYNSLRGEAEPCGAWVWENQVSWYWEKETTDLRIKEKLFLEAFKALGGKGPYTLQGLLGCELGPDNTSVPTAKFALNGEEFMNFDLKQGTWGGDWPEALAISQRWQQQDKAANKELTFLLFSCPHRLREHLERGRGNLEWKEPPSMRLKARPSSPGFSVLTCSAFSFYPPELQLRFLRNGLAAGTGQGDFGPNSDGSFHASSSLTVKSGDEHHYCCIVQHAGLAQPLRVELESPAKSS
T1 sequence (P61769 21-119 limits assumed, chain 2 of 2): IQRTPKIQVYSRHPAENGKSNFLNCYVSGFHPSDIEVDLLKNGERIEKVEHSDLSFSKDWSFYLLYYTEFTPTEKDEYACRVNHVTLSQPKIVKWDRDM
Method: An appropriate amount of protein L (ACTIGEN) was immobilized onto Sensor chip CM4 (GE Healthcare) by the amino coupling method, and the chip was allowed to capture an antibody of interest. Then, diluted FcRn solutions and running buffer (as a reference solution) were injected to allow human FcRn to interact with the antibody captured on the sensor chip. The running buffer used comprised 50 mmol/l sodium phosphate, 150 mmol/l NaCl, and 0.05% (w/v) Tween20 (pH 7.0). FcRn was diluted using each buffer. The chip was regenerated using 10 mmol/l glycine-HCl (pH 1.5). Assays were carried out exclusively at 25 degrees C. The association rate constant ka (1/Ms) and dissociation rate constant kd (1/s), both of which are kinetic parameters, were calculated based on the sensorgrams obtained in the assays, and KD (M) of each antibody for human FcRn was determined from these values. Each parameter was calculated using Biacore T100 Evaluation Software (GE Healthcare).

B1 and B2 are within 1.5-fold of each other in Kd: 280 nM for the first, 350 nM for the second.

B3 and B4 are within 1.5-fold of each other in Kd: 290 nM for the first, 270 nM for the second.

B5 and B6 are within 1.5-fold of each other in Kd: 280 nM for the first, 260 nM for the second.

B7 and B8 are within 1.5-fold of each other in Kd: 260 nM for the first, 240 nM for the second.

B9 and B10 are within 1.5-fold of each other in Kd: 66 nM for the first, 65 nM for the second.

Compared with B11, B12 is 3-fold higher in Kd: 61 nM for the first, 180 nM for the second.

B13 and B14 are within 1.5-fold of each other in Kd: 150 nM for the first, 140 nM for the second.

B15 and B16 are within 1.5-fold of each other in Kd: 120 nM for the first, 130 nM for the second.

B17 and B18 are the same in Kd: 130 nM for the first, 130 nM for the second.

B19 and B20 are within 1.5-fold of each other in Kd: 160 nM for the first, 120 nM for the second.

B21 and B22 are within 1.5-fold of each other in Kd: 120 nM for the first, 130 nM for the second.

First: B23
Second: B24
The Kd of the first is 1.8-fold higher: 130 nM for the first, 74 nM for the second.

Going from B25 to B26, the Kd falls from 49 nM to 13 nM (3.8-fold). The second binds more tightly here.

B27 and B28 are the same in Kd: 10 nM for the first, 10 nM for the second.

B29 and B30 are within 1.5-fold of each other in Kd: 10 nM for the first, 14 nM for the second.

B31 and B32 are within 1.5-fold of each other in Kd: 9.5 nM for the first, 12 nM for the second.

B33 and B34 are within 1.5-fold of each other in Kd: 90 nM for the first, 79 nM for the second.

First: B35
Second: B36
The Kd of the first is 2.7-fold higher: 120 nM for the first, 45 nM for the second.

Compared with B37, B38 is 2.4-fold higher in Kd: 55 nM for the first, 130 nM for the second. The first binds more tightly here.

B39 and B40 are within 1.5-fold of each other in Kd: 160 nM for the first, 170 nM for the second.

B41 and B42 are within 1.5-fold of each other in Kd: 130 nM for the first, 160 nM for the second.

B43 and B44 are within 1.5-fold of each other in Kd: 160 nM for the first, 170 nM for the second.

B45 and B46 are within 1.5-fold of each other in Kd: 150 nM for the first, 160 nM for the second.

B47 and B48 are within 1.5-fold of each other in Kd: 180 nM for the first, 190 nM for the second.

First: B49
Second: B50
The Kd of the first is 14-fold higher: 200 nM for the first, 14 nM for the second. The second binds more tightly here.

B51 and B52 are within 1.5-fold of each other in Kd: 52 nM for the first, 62 nM for the second.

B53 and B54 are within 1.5-fold of each other in Kd: 72 nM for the first, 76 nM for the second.

Compared with B55, B56 is 3.4-fold lower in Kd: 250 nM for the first, 74 nM for the second.

Compared with B57, B58 is 3.7-fold lower in Kd: 48 nM for the first, 13 nM for the second.

In the case of B59, the Kd is reported as 210 nM.
